Experimental data taken from the supplement of paper PMC9876800.

Tested on: peptide library, one residue held at a place counted from the S/T acceptor
Experiment: relative phosphorylation of the sub-library (ratio to the mean residue at this position); higher = residue favoured
Procedure, shortened: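 Each biotinylated degenerate peptide sub-library fixed one residue at one position around a central Ser/Thr and was incubated with a purified recombinant kinase, a human or orthologue construct, in 384-well plates. The 90 min reactions, under kinase-specific conditions, contained 50 μM peptide and 50 μM ATP spiked with γ-32P-ATP. Phosphorylation was read by phosphorimaging spots on streptavidin membranes and quantifying them by densitometry. Relative sub-library phosphorylation expresses each value as a ratio to the mean residue at that position.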

Sequence of MYLK, construct: aa1425-1771, human (Q15746 1425-1771, looked up): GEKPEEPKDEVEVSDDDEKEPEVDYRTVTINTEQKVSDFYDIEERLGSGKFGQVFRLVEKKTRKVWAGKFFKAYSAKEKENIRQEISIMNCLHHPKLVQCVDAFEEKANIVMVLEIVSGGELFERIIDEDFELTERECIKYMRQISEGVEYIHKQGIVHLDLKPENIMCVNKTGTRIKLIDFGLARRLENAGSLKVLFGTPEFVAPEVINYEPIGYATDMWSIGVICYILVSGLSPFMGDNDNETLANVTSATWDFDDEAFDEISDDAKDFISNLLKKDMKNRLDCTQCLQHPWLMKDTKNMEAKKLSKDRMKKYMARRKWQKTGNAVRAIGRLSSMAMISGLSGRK
Sequence of MYO3A, construct: aa1-308, human (Q8NEV4 1-308, looked up): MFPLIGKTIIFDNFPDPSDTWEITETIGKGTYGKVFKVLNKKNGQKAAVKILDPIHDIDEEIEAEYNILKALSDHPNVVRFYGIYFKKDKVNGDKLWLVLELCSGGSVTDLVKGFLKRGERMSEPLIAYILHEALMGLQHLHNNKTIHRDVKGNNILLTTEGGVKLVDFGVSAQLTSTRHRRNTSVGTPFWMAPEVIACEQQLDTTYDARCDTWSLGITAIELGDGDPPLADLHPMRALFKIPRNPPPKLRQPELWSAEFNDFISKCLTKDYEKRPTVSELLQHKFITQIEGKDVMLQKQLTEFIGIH

MYLK, construct: aa1425-1771, human (from UniProt Q15746)
relative phosphorylation
Conditions | at +1 | at +2 | at +3 | at +4 | at -1 | at -2 | at -3 | at -4 | at -5
A fixed | 0.785 | 0.75 | 0.611 | 0.755 | 0.803 | 0.95 | 0.781 | 0.743 | 0.704
D fixed | 0.578 | 0.935 | 0.68 | 0.835 | 0.963 | 0.38 | 0.392 | 0.516 | 0.472
E fixed | 0.631 | 0.874 | 0.625 | 0.747 | 0.696 | 0.378 | 0.403 | 0.586 | 0.483
F fixed | 0.917 | 1.27 | 1.37 | 1.15 | 0.87 | 0.584 | 0.653 | 1.45 | 1.21
G fixed | 0.781 | 0.599 | 0.713 | 0.906 | 0.933 | 0.631 | 0.586 | 0.819 | 0.737
H fixed | 0.706 | 0.914 | 0.744 | 1.28 | 1.06 | 1.01 | 0.876 | 0.94 | 0.916
I fixed | 1.49 | 0.99 | 2.08 | 0.946 | 0.789 | 0.499 | 0.7 | 1.06 | 1.06
K fixed | 1.36 | 1.19 | 1.03 | 1.18 | 1.27 | 1.93 | 1.63 | 1.41 | 1.21
L fixed | 1.01 | 1.09 | 1.65 | 0.952 | 1.13 | 0.505 | 0.619 | 0.898 | 1.08
M fixed | 1.51 | 1.26 | 1.21 | 0.946 | 1.17 | 0.607 | 0.66 | 1.05 | 1.04
N fixed | 0.873 | 0.86 | 0.771 | 1.03 | 1.55 | 0.834 | 0.591 | 0.723 | 0.677
P fixed | 0.615 | 0.675 | 0.637 | 1.01 | 0.896 | 0.465 | 0.556 | 0.651 | 0.722
Q fixed | 1.32 | 1.02 | 0.718 | 0.987 | 1.08 | 1.07 | 0.777 | 0.895 | 0.794
R fixed | 1.59 | 1.56 | 1.06 | 1.22 | 1.49 | 5.45 | 5.91 | 1.86 | 1.89
V fixed | 1.34 | 0.93 | 1.14 | 0.814 | 0.791 | 0.521 | 0.566 | 1 | 0.882
W fixed | 0.676 | 0.749 | 0.907 | 1.27 | 0.636 | 0.594 | 0.611 | 1.03 | 0.875
Y fixed | 0.819 | 1.33 | 1.05 | 0.96 | 0.874 | 0.587 | 0.69 | 1.35 | 2.24
pThr fixed | 1.48 | 1.39 | 0.785 | 1.03 | 0.744 | 0.528 | 0.543 | 0.678 | 0.667
pTyr fixed | 0.795 | 1.19 | 0.925 | 0.965 | 1.07 | 0.51 | 0.784 | 0.669 | 0.772

MYO3A, construct: aa1-308, human (from UniProt Q8NEV4)
relative phosphorylation
Conditions | at +1 | at +2 | at +3 | at +4 | at -1 | at -2 | at -3 | at -4 | at -5
A fixed | 0.412 | 0.7 | 0.734 | 0.973 | 0.971 | 0.873 | 1.07 | 0.953 | 1.14
D fixed | 0.178 | 0.35 | 0.257 | 0.506 | 1.19 | 0.602 | 0.814 | 1.22 | 1.14
E fixed | 0.151 | 0.271 | 0.229 | 0.425 | 0.697 | 0.382 | 0.772 | 1.19 | 1.08
F fixed | 0.71 | 0.638 | 0.858 | 0.517 | 0.847 | 1.45 | 0.821 | 0.951 | 0.819
G fixed | 0.559 | 0.815 | 0.815 | 1.34 | 1.81 | 0.691 | 1.05 | 1.12 | 1.12
H fixed | 0.634 | 1.3 | 1.02 | 0.986 | 1.07 | 1.59 | 1.31 | 1.26 | 1.11
I fixed | 1.65 | 0.572 | 0.801 | 0.72 | 0.345 | 0.684 | 0.789 | 0.801 | 0.823
K fixed | 1.49 | 3.03 | 2.71 | 2.63 | 1.12 | 0.754 | 1.2 | 0.982 | 1.13
L fixed | 2.17 | 0.728 | 1.08 | 0.771 | 0.976 | 0.498 | 0.683 | 0.74 | 0.629
M fixed | 2.55 | 0.933 | 0.883 | 0.67 | 1.22 | 0.941 | 0.903 | 0.807 | 0.81
N fixed | 0.61 | 0.737 | 0.835 | 0.853 | 1.29 | 1.21 | 1.16 | 1.19 | 1.06
P fixed | 0.313 | 0.857 | 0.766 | 0.981 | 0.568 | 0.633 | 0.959 | 0.899 | 1.09
Q fixed | 0.737 | 0.726 | 0.753 | 0.908 | 1.01 | 0.798 | 1.08 | 1.06 | 1.05
R fixed | 1.95 | 2.8 | 2.77 | 2.32 | 1.26 | 1.2 | 1.16 | 0.835 | 1.18
V fixed | 0.882 | 0.688 | 0.775 | 0.752 | 0.523 | 0.579 | 0.759 | 0.89 | 0.927
W fixed | 1.01 | 0.908 | 0.756 | 1.01 | 0.886 | 1.49 | 1.26 | 1.11 | 0.83
Y fixed | 0.985 | 0.947 | 0.956 | 0.643 | 1.21 | 2.62 | 1.21 | 0.993 | 1.08
pThr fixed | 0.523 | 0.418 | 0.71 | 0.348 | 0.573 | 0.699 | 0.939 | 1.19 | 1.06
pTyr fixed | 0.325 | 0.301 | 0.649 | 0.403 | 1.65 | 0.771 | 0.993 | 1.24 | 1.24
